38 variants from the RNAGym collection of RNA variant scans (doi:10.7554/elife.80360) can be followed below.

To fix the notation:
B1: Hairpin Ribozyme (parent)
chain: GUCCUCUUUCACGUGCGCGUGAAAGAGAGAAGUGAACCAGAGAAACACACGUUGUGGUAUAUUACCUGGUA

In this data set the parent is B1. Put plainly: self-cleavage, relative activity (ratio to wild type); higher = more cleavage; co-transcriptional.
GUCCUCUUUCACGUGCGCGUGAAAGAGAGAAGUGAACCAGAGAAACAGCCGUUGUGGUAUAUUACCUGGUA [C48G A49C]: the self-cleavage was 0.223.
For GUCCUCUUUCACGUGCGCGUGAAAGAGAGAAGUGAACCAGAGAAACUCACGUGGUGGUAUAUUACCUGGUA [A47U U53G], the self-cleavage is 0.108.
As for GUCCUCUUUCACGUGCGCGUGAAAGAGAGAAGUGAACCAGAGAAACAGACGUUGUGGUAUAUUACCUGGGA [C48G U70G], the self-cleavage is 0.0256.
Then GUCCUCUUUCACGUGCGCGUGAAAGAGAGAAGUGAACCAGAGAAACAGACGUUGUGGUAUAUUACCUGGAA [C48G U70A], with 0.144.
Regarding GUCCUCUUUCACGUGCGCGUGAAAGAGAGAAGUGAACCAGAGAAACAGACGUUGUGGGAUAUUACCUGGUA [C48G U58G], the self-cleavage stood at 0.0532.
On to GUCCUCUUUCACGUGCGCGUGAAAGAGAGAAGUGAACCAGAGAAACUAACGUUGUGGUAUAUUACCUGGUA [A47U C48A], for which the self-cleavage came out at 0.157.
As to GUCCUCUUUCACGUGCGCGUGAAAGAGAGAAGUGAACCAGAGAAACUUACGUUGUGGUAUAUUACCUGGUA [A47U C48U], the self-cleavage is 0.112.
On to GUCCUCUUUCACGUGCGCGUGAAAGAGAGAAGUGAACCAGAGAAACAUACGUUGUGGUAUAUUACCUGAUA [C48U G69A], for which the self-cleavage amounted to 0.178.
For GUCCUCUUUCACGUGCGCGUGAAAGAGAGAAGUGAACCAGAGAAACAAACGUUGUGGUAUCUUACCUGGUA [C48A A61C], the self-cleavage came to 0.201.
With GUCCUCUUUCACGUGCGCGUGAAAGAGAGAAGUGAACCAGAGAAACAAAAGUUGUGGUAUAUUACCUGGUA [C48A C50A], the self-cleavage worked out at 0.188.
Regarding GUCCUCUUUCACGUGCGCGUGAAAGAGAGAAGUGAACCAGAGAAACAAAUGUUGUGGUAUAUUACCUGGUA [C48A C50U], the self-cleavage amounted to 0.131.
For the variant GUCCUCUUUCACGUGCGCGUGAAAGAGAGAAGUGAACCAGAGAAACAGACGUUGUGGUAUGUUACCUGGUA [C48G A61G], the self-cleavage came to 0.131.
As for GUCCUCUUUCACGUGCGCGUGAAAGAGAGAAGUGAACCAGAGAAACAGACGUUGUGGUAUCUUACCUGGUA [C48G A61C], the self-cleavage amounted to 0.0868.
For the variant GUCCUCUUUCACGUGCGCGUGAAAGAGAGAAGUGAACCAGAGAAACAGACGUUGUGGUAUAUUACCUGGUC [C48G A71C], the self-cleavage came out at 0.231.
On to GUCCUCUUUCACGUGCGCGUGAAAGAGAGAAGUGAACCAGAGAAACAGACGUUGUGGUAUAUUACCUGGUU [C48G A71U], for which the self-cleavage was determined as 0.14.
Take GUCCUCUUUCACGUGCGCGUGAAAGAGAGAAGUGAACCAGAGAAACAAACGUUGAGGUAUAUUACCUGGUA [C48A U55A]: the self-cleavage was 0.228.
Turning to GUCCUCUUUCACGUGCGCGUGAAAGAGAGAAGUGAACCAGAGAAACAAACGUUGGGGUAUAUUACCUGGUA [C48A U55G], the self-cleavage is 0.251.
Turning to GUCCUCUUUCACGUGCGCGUGAAAGAGAGAAGUGAACCAGAGAAACAGAGGUUGUGGUAUAUUACCUGGUA [C48G C50G], the self-cleavage worked out at 0.137.
With GUCCUCUUUCACGUGCGCGUGAAAGAGAGAAGUGAACCAGAGAAACAGAAGUUGUGGUAUAUUACCUGGUA [C48G C50A], the self-cleavage was 0.0785.
Regarding GUCCUCUUUCACGUGCGCGUGAAAGAGAGAAGUGAACCAGAGAAACAGAUGUUGUGGUAUAUUACCUGGUA [C48G C50U], the self-cleavage worked out at 0.177.
For the variant GUCCUCUUUCACGUGCGCGUGAAAGAGAGAAGUGAACCAGAGAAACAGACGUUGUGGUAUAAUACCUGGUA [C48G U62A], the self-cleavage was 0.0564.
Turning to GUCCUCUUUCACGUGCGCGUGAAAGAGAGAAGUGAACCAGAGAAACAUACGUUGUGGUGUAUUACCUGGUA [C48U A59G], the self-cleavage turned out to be 0.121.
As to GUCCUCUUUCACGUGCGCGUGAAAGAGAGAAGUGAACCAGAGAAACAUACGUUGUGGUCUAUUACCUGGUA [C48U A59C], the self-cleavage came to 0.222.
Then GUCCUCUUUCACGUGCGCGUGAAAGAGAGAAGUGAACCAGAGAAACAGACAUUGUGGUAUAUUACCUGGUA [C48G G51A], with 0.172; and GUCCUCUUUCACGUGCGCGUGAAAGAGAGAAGUGAACCAGAGAAACUCACGUUGUGGUAUAUUACCUGGCA [A47U U70C], with 0.0521; and GUCCUCUUUCACGUGCGCGUGAAAGAGAGAAGUGAACCAGAGAAACAGACGUUGUGGUGUAUUACCUGGUA [C48G A59G], with 0.129.
Turning to GUCCUCUUUCACGUGCGCGUGAAAGAGAGAAGUGAACCAGAGAAACUCACGUUGUGGUAUAGUACCUGGUA [A47U U62G], the self-cleavage was 0.158.
Regarding GUCCUCUUUCACGUGCGCGUGAAAGAGAGAAGUGAACCAGAGAAACAUACGUUGGGGUAUAUUACCUGGUA [C48U U55G], the self-cleavage was determined as 0.223.
For the variant GUCCUCUUUCACGUGCGCGUGAAAGAGAGAAGUGAACCAGAGAAACAUACGUUGAGGUAUAUUACCUGGUA [C48U U55A], the self-cleavage is 0.196.
In the case of GUCCUCUUUCACGUGCGCGUGAAAGAGAGAAGUGAACCAGAGAAACAGACGUUGUGGUAUAUGACCUGGUA [C48G U63G], the self-cleavage stood at 0.0813.
Consider GUCCUCUUUCACGUGCGCGUGAAAGAGAGAAGUGAACCAGAGAAACAGACGUUGUGGUAUAUUACCUCGUA [C48G G68C], for which the self-cleavage stood at 0.189.
On to GUCCUCUUUCACGUGCGCGUGAAAGAGAGAAGUGAACCAGAGAAACAUACGUUGUGGUAUAUUACCUGGUU [C48U A71U], for which the self-cleavage is 0.146.
Take GUCCUCUUUCACGUGCGCGUGAAAGAGAGAAGUGAACCAGAGAAACAUACGUUGUGGUAUAUUACCUGGUC [C48U A71C]: the self-cleavage was determined as 0.387.
For the variant GUCCUCUUUCACGUGCGCGUGAAAGAGAGAAGUGAACCAGAGAAACUCACGUUGUGCUAUAUUACCUGGUA [A47U G57C], the self-cleavage was 0.157.
Consider GUCCUCUUUCACGUGCGCGUGAAAGAGAGAAGUGAACCAGAGAAACAUACGUUGUGGUAUCUUACCUGGUA [C48U A61C], for which the self-cleavage worked out at 0.128.
Regarding GUCCUCUUUCACGUGCGCGUGAAAGAGAGAAGUGAACCAGAGAAACAAACGUUGUGGUAUAUUACCUGUUA [C48A G69U], the self-cleavage amounted to 0.121.
With GUCCUCUUUCACGUGCGCGUGAAAGAGAGAAGUGAACCAGAGAAACAAACGUUGUGGUAUAUUACCUGAUA [C48A G69A], the self-cleavage was determined as 0.173.
As for GUCCUCUUUCACGUGCGCGUGAAAGAGAGAAGUGAACCAGAGAAACAAACGUCGUGGUAUAUUACCUGGUA [C48A U53C], the self-cleavage was 0.18.
